± gives the uncertainty stated by the source.
Experiment: self-splicing fitness, log relative to wild type (ln ratio); higher = more splicing; Tetrahymena group I intron in knt gene, E. coli kanamycin selection, DiMSum; sequences stand for … in CUCUCU…GGAGGGAAAAGUUAUCAGGCAUGCACCUGGUAGCUAGUCUUUAAACCAAUAGAUUGCAUCGGUUUAAAAGGCAAGACCGUCAAAUUGCGGGAAAGGGGUCAACAGCCGUUCAGUACCAAGUCUCAGGGGAAACUUUGAGAUGGCCUUGCAAAGGGUAUGGUAAUAAGCUGACGGACAUGGUCCUAACCACGCAGCCAAGUCCUAAGUCAACAGAUCUUCUGUUGAUAUGGAUGCAGUUCACAGACUAAAUGUCGGUCGGGGAAGAUGUAUUCUUCUCAUAAGAUAUAGUCGGACCUCUCCUUAAUGGGAGCUAGCGGAUGAAGUGAUGCAACACUGGAGCCGCUGGGAACUAAUUUGUAUGCGAAAGUAUAUUGAUUAGUUUUGGAGUACUCGUGGUCG
Outline: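 A randomised library covering all eight P1ex-region intron nucleotides was built with the intron in the knt kanamycin-resistance gene on pET-22b(+) and held in E. coli BL21(DE3). Cells were grown overnight at 37°C or 30°C on LB agar, with or without 25 μg/mL kanamycin, plus 100 μg/mL carbenicillin, 50 μM IPTG and 0.2% rhamnose, and pooled colonies were amplicon-sequenced on an Illumina HiSeq 2500. DiMSum fitness is the error-weighted combination of wild-type-normalised replicate fold changes, kanamycin versus none.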

Sequence | self-splicing fitness (ln) (30 °C) | self-splicing fitness (ln) (37 °C)
GCGUAGCAAUAUUACGUCUG | -3.48 ± 0.23 | -3.38 ± 0.24
GCGUAGCAAUAUUACGUGAG | -2.75 ± 0.17 | -2.67 ± 0.17
GCGUAGCAAUAUUACGUGAU | -2.79 ± 0.24 | -1.56 ± 0.19
GCGUAGCAAUAUUACGUUGU | -2.73 ± 0.17 | -1.89 ± 0.18
GCUAAGCAAUAUUACGAGAG | -2.38 ± 0.12 | -1.27 ± 0.14
GCUAAGCAAUAUUACGAUAA | -1.88 ± 0.17 | -1.1 ± 0.17
GCUAAGCAAUAUUACGCCCG | -0.889 ± 0.11 | -0.34 ± 0.17
GCUAAGCAAUAUUACGCGCG | -0.427 ± 0.084 | -0.075 ± 0.13
GCUAAGCAAUAUUACGCUAA | -3.29 ± 0.34 | -2.3 ± 0.21
GCUAAGCAAUAUUACGGCAU | -2.13 ± 0.1 | -0.863 ± 0.12
GCUAAGCAAUAUUACGGCUG | -2.83 ± 0.15 | -2.03 ± 0.18
GCUAAGCAAUAUUACGGGAG | -3.12 ± 0.34 | -1.28 ± 0.17
GCUAAGCAAUAUUACGGGCC | – | -2.28 ± 0.39
GCUAAGCAAUAUUACGGGGC | -4.76 ± 0.38 | -2.87 ± 0.28
GCUAAGCAAUAUUACGGGGG | -3.45 ± 0.28 | -1.89 ± 0.22
GCUAAGCAAUAUUACGGGUG | -1.24 ± 0.069 | 0.116 ± 0.079
GCUAAGCAAUAUUACGGUCC | -1.4 ± 0.22 | -0.541 ± 0.3
GCUAAGCAAUAUUACGGUUA | -1.33 ± 0.1 | -1.49 ± 0.094
GCUAAGCAAUAUUACGGUUU | -0.872 ± 0.069 | -0.522 ± 0.095

Sequence | self-splicing fitness (ln) (30 °C) | self-splicing fitness (ln) (37 °C)
GCUAAGCAAUAUUACGUCAG | -3.84 ± 0.28 | -2.21 ± 0.22
GCUAAGCAAUAUUACGUCGU | -1.39 ± 0.072 | -1.3 ± 0.095
GCUAAGCAAUAUUACGUCUC | -0.757 ± 0.066 | -0.164 ± 0.072
GCUAAGCAAUAUUACGUCUU | -1.18 ± 0.13 | 0.136 ± 0.13
GCUAAGCAAUAUUACGUGCA | -0.433 ± 0.094 | -0.212 ± 0.1
GCUAAGCAAUAUUACGUGUA | -1.29 ± 0.087 | -0.0918 ± 0.088
GCUAAGCAAUAUUACGUUGG | -3.67 ± 0.15 | -1.79 ± 0.12
GCUCAGCAAUAUUACGAAAA | -0.758 ± 0.13 | -1.02 ± 0.18
GCUCAGCAAUAUUACGAAAC | -0.549 ± 0.14 | -0.851 ± 0.17
GCUCAGCAAUAUUACGAAGC | -2.75 ± 0.12 | -2.33 ± 0.15
GCUCAGCAAUAUUACGAAUU | -1.04 ± 0.064 | 0.155 ± 0.087
GCUCAGCAAUAUUACGACGC | -0.319 ± 0.12 | -0.102 ± 0.19
GCUCAGCAAUAUUACGAGCG | -2.81 ± 0.16 | -0.923 ± 0.11
GCUCAGCAAUAUUACGCAGC | -2.98 ± 0.35 | -2.67 ± 0.44
GCUCAGCAAUAUUACGCAGG | -1.52 ± 0.084 | -1.29 ± 0.098
GCUCAGCAAUAUUACGCAGU | -2.41 ± 0.15 | -1.13 ± 0.14
GCUCAGCAAUAUUACGCCGA | -2.43 ± 0.26 | -1.39 ± 0.34
GCUCAGCAAUAUUACGCUGG | -2.98 ± 0.16 | -2.27 ± 0.22
GCUCAGCAAUAUUACGCUUG | -2.04 ± 0.11 | 0.227 ± 0.1
